As usually defined, the stoichiometry N is the number of molecules, sites or subunits per partner or assembly.

Experimental findings from paper doi:10.1101/2020.09.28.310474 (bioRxiv, 2020) are described below.

This data set deals with the molecule itself. The data set can be described thus: crystal structure.

B1: human CaMKIIα hub domain containing six mutations (6x Hub) (domain or fragment, UniProt Q9UQM7 345-475, looked up)
chain: VRKQEIIKVNQQLIEAISNGDFESYTKMCDPGMTAFEPEALGNLVEGLDFHRFYFENLWSRNSKPVHNTMLNPHIHLMGDESACIAYIRITQYLDAGGIPRTAQSEETRVWHRRDGKWQHVHMHRSGAPSV
Take B1: the “stoichiometry N” value came out at 14.
